Experimental data reported in publication PMC13544220, “Glycemic and bodyweight effects of GIPR coding variation reflect differences in surface expression and intrinsic functional impairment” (Science Advances, 2026).

Columns and labels:
Assay type in all cases: cell-based, human
[1] = tested on: wild-type and variant SNAP-GIPR; assay: cADDis cAMP imaging in AD293 cells, ensemble, expression-matched and per decile; details: Fig S3F, cADDis, mean
Experimental: AD293 cells were reverse transfected with the GIPR variant or wild-type plasmids using Lipofectamine 2000 and cotransduced with the cADDis Green Up BacMam (10 μl per well, Montana Molecular, USA), in 96-well, poly-D-lysine–coated microplates. All variants were tested in parallel on each occasion to control for transfection efficiency differences between experiments. After 24 hours, cells were labeled using 500 nM SNAP-Surface Alexa Fluor 647 for 10 min at room temperature. Cells were washed three times and then imaged in KRBH buffer containing 6 mM glucose and 0.1% BSA. Imaging was performed at 37°C by wide-field microscopy using the same microscope as in the “Assessment of surface GIPR expression by SNAP-tag labeling in cell lines” section, with 9 FOVs for both cADDis and SNAP-Surface fluorescence acquired from each well using a 10X, 0.45 NA air objective. […] Flat-field correction was performed using BaSiC ([72]), drift correction was performed using SIFT, and a maximum intensity projection of the cADDis channel was used to segment individual cells. cAMP responses were determined by quantifying the cADDis fluorescence intensity for each cell at each time point. Nonviable cells or noncell objects were excluded according to criteria for allowable cell IBMX/FSK responses. […] The cADDis mask was then used to quantify the SNAP-Surface signal from each cell. Wild-type SNAP-Surface readings were split into deciles, and these deciles were subsequently used to categorize variant-transfected cells to match against the wild type. After trimming the top and bottom deciles, the mean was taken of each decile mean for surface expression level or cAMP response, which achieved matched expression levels by effectively applying an inverse weighting to counteract differences in cell number in each decile for different variants. Ensemble expression levels or cAMP responses were calculated without regard to deciles. Variant cADDis responses were also analyzed within their own surface expression deciles.

[2] = tested on: wild-type and variant SNAP-GIPR; assay: Constitutive and agonist-mediated internalization, reversible SNAP-tag labelling, INS-1 cells; set-up: key to Internalisation, GIP-only / Internalisation, Vehicle / Internalisation, +GIP: % internalization: residual fluorescence after Mesna vs pre-Mesna; details: Mean
Experimental: (§1) Twenty-four hours before the experiment, AD293 or INS-1 cells were reverse transfected with GIPR variant or wild-type plasmids using Lipofectamine 2000 in 96-well, clear-bottom, black microplates precoated with poly-D-lysine. All variants were tested in parallel on each occasion to control for transfection efficiency differences between experiments. […] Media were then removed, cells washed with PBS and then placed in TNE buffer (pH 8.6) for imaging. […] After 10 min, the well was reimaged again to detect remaining fluorescence from internalized GIPR. Images were analyzed as in the “Assessment of surface GIPR expression by SNAP-tag labeling in cell lines” section, with the residual specific fluorescence after Mesna treatment expressed relative to the pre-Mesna value to establish percentage internalization.

[3] = tested on: wild-type and variant SNAP-GIPR; assay: Single-concentration GIP cAMP response by HTRF in AD293 cells; details: Fig S3F, HTRF, mean;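 also: ratio to experiment-wide average response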
Experimental: (§2) All variants were tested in parallel on each occasion to control for transfection efficiency differences between experiments.

[4] = tested on: wild-type and variant SNAP-GIPR; assay: Single-concentration GIP cAMP response by HTRF in INS-1 cells; details: Fig S3E, mean
Experimental: as §2

[5] = tested on: wild-type and variant SNAP-GIPR; assay: Constitutive and agonist-mediated internalization, reversible SNAP-tag labelling, AD293 cells; set-up: key to Internalisation, Vehicle / Internalisation, +GIP / Internalisation, GIP-only: % internalization: residual fluorescence after Mesna vs pre-Mesna; Surface expression: unit not given here; details: Mean
Experimental: as §1

[6] = tested on: wild-type and variant SNAP-GIPR; assay: Surface SNAP-GIPR expression (SNAP-tag labelling) in INS-1 cells; details: Fig 4G; Mean
Experimental: (§3) Twenty-four hours before the experiment, AD293 or INS-1 cells were reverse transfected with GIPR variant or wild-type plasmids using Lipofectamine 2000 in 96-well, clear-bottom, black microplates precoated with poly-D-lysine. All variants were tested in parallel on each occasion to control for transfection efficiency differences between experiments. Cells were then labeled using the cell-impermeant probe SNAP-Surface Alexa Fluor 647 (500 nM, New England Biolabs, USA) for 10 min at room temperature to label only surface GIPR. […] Several fields of view (FOVs) were acquired within each well using a 20X, 0.75–numerical aperture (NA) air objective. Surface GIPR fluorescence was quantified after flat-field correction using BaSiC ([72]) and segmenting using Phantast ([73]), which generates a mask based on the phase contrast images to demarcate cell versus noncell. Wide-field imaging of the surface-specific labeling achieved by SNAP-Surface probes means that surface expression can be established from whole-cell fluorescence, after subtracting nonspecific fluorescence from a separate well containing nontransfected cells processed in parallel from the same experiment. Data were normalized by dividing by the average specific signal across each experiment, or by the wild-type value, as indicated in the figure legends.

[7] = tested on: wild-type and variant SNAP-GIPR; assay: Surface SNAP-GIPR expression (SNAP-tag labelling) in AD293 cells; details: for AD293 Surface: Fig S3E, mean; for Surface SNAP-GIPR expression: sheet Fig 1C;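 as to all read-outs here: scaled to the experimental average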
Experimental: as §3

B1: I378M (protein, UniProt P48546 22-466, looked up, variant I378M)
Gastric inhibitory …: RAETGSKGQTAGELYQRWERYRRECQETLAAAEPPSGLACNGSFDMYVCWDYAAPNATARASCPWYLPWHHHVAAGFVLRQCGSDGQWGLWRDHTQCENPEKNEAFLDQRLILERLQVMYTVGYSLSLATLLLALLILSLFRRLHCTRNYIHINLFTSFMLRAAAILSRDRLLPRPGPYLGDQALALWNQALAACRTAQIVTQYCVGANYTWLLVEGVYLHSLLVLVGGSEEGHFRYYLLLGWGAPALFVIPWVIVRYLYENTQCWERNEVKAIWWIIRTPILMTILINFLIFIRILGILLSKLRTRQMRCRDYRLRLARSTLTLVPLLGVHEVVFAPVTEEQARGALRFAKLGFEMFLSSFQGFLVSVLYCFINKEVQSEIRRGWHHCRLRRSLGEEQRQLPERAFRALPSGSGPGEVPTSRGLSSGTLPGPGNEASRELESYC
AD293 100 pM cADDis ([1]; AD293, 100 pM): 37.0191
AD293 100 nM cADDis ([1]; AD293, 100 nM): 39.23
+GIP internalisation (100 nM) ([2]; Fig 4G, GIP 100 nM): 0.6937
GIP-specific internalisation (100 nM) ([2]; Fig 4G, GIP 100 nM): 0.1611
Constitutive internalisation (100 nM) ([2]; Fig 4G): 0.5325
Internalisation, +GIP ([2]; Fig S4C, INS-1): 45.8367
Internalisation, GIP-only ([2]; Fig S4C, INS-1): 10.74
Internalisation, Vehicle ([2]; Fig S4C, INS-1): 35.0967
AD293 100 pM HTRF ([3]; AD293, 100 pM): 1.235
AD293 100 nM HTRF ([3]; AD293, 100 nM): 1.479
INS-1 cAMP (100 nM) [4]: 1.242
+GIP internalisation (100 nM) ([5]; Fig 4E, GIP 100 nM): 1.013
GIP-specific internalisation (100 nM) ([5]; Fig 4E, GIP 100 nM): 0.2773
Constitutive internalisation (100 nM) ([5]; Fig 4E): 0.7358
Surface expression ([5]; Fig 4E): 1.854
Internalisation, +GIP ([5]; Fig S4C, AD293): 54.7212
Internalisation, GIP-only ([5]; Fig S4C, AD293): 14.9417
Internalisation, Vehicle ([5]; Fig S4C, AD293): 39.7795
Surface expression [6]: 1.534
AD293 Surface ([7]; column repeated, paired with cAMP 100 nM): 1.77
AD293 Surface ([7]; paired with cAMP 100 pM): 1.77
Surface SNAP-GIPR expression ([7]; replicate 1): 1.773
Surface SNAP-GIPR expression ([7]; replicate 2): 1.115
Surface SNAP-GIPR expression ([7]; replicate 3): 0.7558
Surface SNAP-GIPR expression ([7]; replicate 4): 2.264
Surface SNAP-GIPR expression ([7]; replicate 5): 2.029
Surface SNAP-GIPR expression ([7]; replicate 6): 1.522
Surface SNAP-GIPR expression ([7]; replicate 7): 1.263
Surface SNAP-GIPR expression ([7]; replicate 8): 1.045
Surface SNAP-GIPR expression ([7]; replicate 9): 1.7
Surface SNAP-GIPR expression ([7]; replicate 10): 1.857
Surface SNAP-GIPR expression ([7]; replicate 11): 1.523
Surface SNAP-GIPR expression ([7]; replicate 12): 1.59
Surface SNAP-GIPR expression ([7]; replicate 13): 1.942
Surface SNAP-GIPR expression ([7]; replicate 14): 2.071
Surface SNAP-GIPR expression ([7]; replicate 15): 1.739
Surface SNAP-GIPR expression ([7]; replicate 16): 1.656
Surface SNAP-GIPR expression ([7]; replicate 17): 1.757
Surface SNAP-GIPR expression ([7]; replicate 18): 2.038
Surface SNAP-GIPR expression ([7]; replicate 19): 1.806
Surface SNAP-GIPR expression ([7]; replicate 20): 1.652
Surface SNAP-GIPR expression ([7]; replicate 21): 1.678
Surface SNAP-GIPR expression ([7]; replicate 22): 1.86
Surface SNAP-GIPR expression ([7]; replicate 23): 1.91
Surface SNAP-GIPR expression ([7]; replicate 24): 1.99
Surface SNAP-GIPR expression ([7]; replicate 25): 1.721
Surface SNAP-GIPR expression ([7]; replicate 26): 1.677
Surface SNAP-GIPR expression ([7]; replicate 27): 2.102
Surface SNAP-GIPR expression ([7]; replicate 28): 2.164
Surface SNAP-GIPR expression ([7]; replicate 29): 2.007
Surface SNAP-GIPR expression ([7]; replicate 30): 1.865
Surface SNAP-GIPR expression ([7]; replicate 31): 1.878
Surface SNAP-GIPR expression ([7]; replicate 32): 1.784
Surface SNAP-GIPR expression ([7]; replicate 33): 1.822
Surface SNAP-GIPR expression ([7]; replicate 34): 1.937
Surface SNAP-GIPR expression ([7]; replicate 35): 1.581
Surface SNAP-GIPR expression ([7]; replicate 36): 1.504
Surface SNAP-GIPR expression ([7]; replicate 37): 2.229
Surface SNAP-GIPR expression ([7]; replicate 38): 1.734
Surface SNAP-GIPR expression ([7]; replicate 39): 2.181
Surface SNAP-GIPR expression ([7]; replicate 40): 1.889
Surface SNAP-GIPR expression ([7]; replicate 41): 1.94
